What was measured:
C-reactive protein (CRP) = target: T1, C-reactive protein (CRP) (UniProt P02741 19-224); assay: fluorescence recovery by displacement of AuNP-ssDNA (bead-immobilized probe); 20 ng/mL; negligible response; PBS pH 7.2, 30 min shaking, temperature not stated; probe folded in 1 mM MgCl2, 1x PBS pH 7.2; serum diluted 10x in PBS; conditions: protein: commercial; chain copies: 5; label: Texas Red; gold nanoparticle quencher; biotin on streptavidin PS beads; S2 pairs with S1[6-23]; S1 overhangs 5' 5 nt and 3' 17 nt
T1 sequence: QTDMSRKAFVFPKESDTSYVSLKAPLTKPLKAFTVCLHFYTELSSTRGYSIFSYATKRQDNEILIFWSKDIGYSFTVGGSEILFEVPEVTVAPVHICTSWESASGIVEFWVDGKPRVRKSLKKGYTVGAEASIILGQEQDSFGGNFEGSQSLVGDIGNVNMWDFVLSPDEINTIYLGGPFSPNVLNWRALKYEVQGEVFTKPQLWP

myoglobin (MYO) = target: T2, myoglobin (MYO) (UniProt P02144 2-154); assay: as above; conditions: protein: commercial; label: Texas Red; gold nanoparticle quencher; biotin on streptavidin PS beads; S2 pairs with S1[6-23]; S1 overhangs 5' 5 nt and 3' 17 nt
T2 sequence: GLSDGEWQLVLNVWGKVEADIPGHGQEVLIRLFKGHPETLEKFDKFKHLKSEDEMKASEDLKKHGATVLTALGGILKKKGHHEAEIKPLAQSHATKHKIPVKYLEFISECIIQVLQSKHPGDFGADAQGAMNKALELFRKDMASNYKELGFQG

[1] = target: cardiac troponin I (cTnI) (human, UniProt P19429 2-210); assay: fluorescence recovery by displacement of AuNP-ssDNA (bead-immobilized probe); PBS, cTnI 0.2-60 ng/mL; LOD 44 pg/mL; PBS pH 7.2, 30 min shaking, temperature not stated; probe folded in 1 mM MgCl2, 1x PBS pH 7.2; serum diluted 10x in PBS; conditions: protein: commercial; label: Texas Red; gold nanoparticle quencher; biotin on streptavidin PS beads; S2 pairs with S1[6-23]; S1 overhangs 5' 5 nt and 3' 17 nt
cardiac troponin I (cTnI), sequence (P19429 2-210): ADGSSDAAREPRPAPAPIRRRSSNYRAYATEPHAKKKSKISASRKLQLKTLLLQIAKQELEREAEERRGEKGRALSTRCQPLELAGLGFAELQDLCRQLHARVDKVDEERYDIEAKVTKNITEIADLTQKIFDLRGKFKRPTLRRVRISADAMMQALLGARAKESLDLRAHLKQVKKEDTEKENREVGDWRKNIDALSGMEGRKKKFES

B1: cTnI aptamer probe hybridized with AuNP-ssDNA (mixed)
DNA 1: CGTGCAGTACGCCAACCTTTCTCATGCGCTGCCCCTCTTA
DNA 2: GAGAAAGGTTGGCGTACT
modifications: 5'-biotin and 3'-Texas Red on S1; 5' SH-C6 on S2 (gold nanoparticle)
binding result (C-reactive protein (CRP)): no binding | binding result (myoglobin (MYO)): no binding | binding result [1]: binds
